Drawing on article PMC6969876, “NADPH biosensor-based identification of an alcohol dehydrogenase variant with improved catalytic properties caused by a single charge reversal at the protein surface” (AMB Express, 2020), this text covers stoichiometry N for one substance.

This experiment has as its target LbADH^K71E, variant of the NADPH-dependent alcohol dehydrogenase of Lactobacillus brevis, with N-terminal Strep-tag II (Lactobacillus brevis). As to the kind of experiment: SEC; Superdex 200 increase 10/300 GL, buffer A (50 mM triethanolamine hydrochloride, 1 mM MgCl2, pH 7.0), 0.75 mL/min; apparent native mass from a calibration curve with carbonic anhydrase, bovine serum albumin, alcohol dehydrogenase and beta-amylase; affinity-purified protein loaded. A general note: SEC sorts molecules by how far they enter the pores of the column.

One may read the stoichiometry N as the number of molecules, sites or subunits per partner or assembly. For “LbADH^K71E, variant of the NADPH-dependent alcohol dehydrogenase of Lactobacillus brevis, with N-terminal Strep-tag II (enzyme)”, the stoichiometry N is 4.
